Assays:
Assay type in all cases: cell-based, mice
VEGFD = assay: qRT-PCR analysis of VEGFD expression in hippocampal neurons; details: hippocampal neurons infected with rAAV
Method: Total RNA was isolated at DIV10 to DIV13 from hippocampal primary neuron cultures or isolated brain tissues with Rneasy Mini Kit (Qiagen, Hilden, Germany) including an optional Dnase I treatment at room temperature for 15 min according to manufacturer's instructions (Qiagen). 1.2 μg of extracted RNA was reverse transcribed into first strand cDNA using High Capacity cDNA Reverse Transcription kit (Applied Biosystems, Foster City, Calif.).
Quantitative reverse transcriptase PCR (qRT-PCR) was done on an ABI7300 thermal cycler using Universal qRT-PCR master mix with TaqMan Gene Expression Assays for the indicated genes (Applied Biosystems). The following TaqMan Gene Expression Assays were used in this study: Gusb (Mm00446953_m1), cFos (Mm00487425_m1), VEGFD (Mm00438965_m1), VEGFC (Mm01202432_m1), VEGF (Mm01281449_m1), VEGFR3 (Mm01292618_m1), beta-actin (Mm00607939_s1), beta-2 microglobulin (Mm00437762_m1), CBP (Mm01342435_m1), p38 MAPK alpha (Mm00442497_m1), p38 MAPK beta (Mm00440955_m1). Expression of target genes was normalized against the expression of Gusb as endogenous control gene. Data were derived from at least 5 independent experiments.

ERK1/2 = assay: Immunoblot analysis with phospho-specific antibodies, ERK1/2; details: rVEGFD treatment for various lengths of time
Method: (§1) A: Immunoblot analysis using phosphor-specific antibodies of hippocampal neurons with or without rVEGFD treatment for the indicated times. Tubulin was used as loading control.
(§2) B: Quantification of the experiment shown in A. rVEGFD treatment causes a significant increase of CREB, ERK1/2 and p38 MAP kinase phosphorylation. All values are expressed as percentage of untreated controls (n=5).
(§3) Next, the signaling mechanisms through which VEGFD controls dendrite architecture were determined. Cell lysates from hippocampal neurons treated with rVEGFD for various lengths of time were subjected to immunoblot analysis using a large panel of antibodies that are specific for the phosphorylated (i.e. activated) forms of signaling molecules (FIG. 9). […] Therefore, it was determined whether p38 MAPK mediates the effects of VEGFD on dendrite geometry. […] Because SB203580 inhibits the alpha and beta isoforms of p38 MAPK, the role of p38 MAPK in VEGFD-mediated dendritic arborization by RNAi was further investigated. Two pAAVs, shp38α and shp38β, that contain expression cassettes for shRNAs specific for the alpha and the beta isoform, respectively, of p38 MAPK, were generated.

p38 MAP kinase = assay: Immunoblot analysis with phospho-specific antibodies, p38 MAP kinase; details: rVEGFD treatment for various lengths of time
Method: as §1, §2, §3

hippocampal neurons = assay: Morphometric analyses (total dendritic length, Sholl analysis, spine density) of cultured hippocampal neurons
Method: Hippocampal neurons from newborn C57BL/6 mice were cultured as known in the art. Experiments were done after a culturing period of 10 to 14 days in vitro (DIV). DNA transfection was done on DIV8 using Lipofectamine 2000 (Invitrogen, San Diego, Calif.). For the studies on dendrite morphology, neurons were analyzed 4-5 days after transfection.
For 3D Sholl Analysis, total dendritic length and spine morphology were calculated using Object-Image freeware software with a specific set of macros (written by Dr. E. Ruthazer, McGill University, Quebec). Briefly, a z-Stack acquisition was imported, calibrated in Object-Image and manually traced. Total dendritic length was then computed. For Sholl analysis, the shell interval was set at 5 μm. All analyses were performed blind. In all in vitro experiments, for each condition, a minimum of 12 neurons from three independent preparations was analyzed. For the Golgi staining quantifications of 20 neurons for each condition from 4 different injected animals per viral construct were traced and analyzed.
Hippocampal neurons were fixed with 4% paraformaldehyde at room temperature for 20 min. For immunostaining, primary and secondary antibodies were applied in GDB buffer (30 mM phosphate buffer [pH7.4] containing 0.2% gelatin, 0.5% Triton X-100, and 0.9 M NaCl). For the morphometric analyses, fluorescence images were acquired using a confocal laser-scanning microscope TCS SP2 (Leica, Mannheim, Germany) equipped with an inverted fluorescence microscope DM IRE2 (Leica) and Leica confocal scan software. All images were obtained with sequential acquisition setting at a resolution of 1024×1024 pixels. Each image was a z series projection of images taken at 1 μm intervals.

hippocampal cultures = assay: MEA recordings of spontaneous network activity; details: rAAV-shVEGFD infected cultures, 100 ng/ml rVEGFD added to media
Method: MEA recordings were done as known in the art. From DIV7 to DIV13, recordings of spontaneous network activity were acquired for 5 min once per day.

CREB = assay: Immunoblot analysis with phospho-specific antibodies, CREB; details: rVEGFD treatment for various lengths of time
Method: as §1, §2, §3

Row | Molecule | VEGFD mRNA levels (VEGFD) | ERK1/2 phosphorylation (ERK1/2) | activation of p38 MAPK (p38 MAP kinase) | dendrite length or complexity (hippocampal neurons; neurons transfected with pAAV-shSCR and pAAV-emptymC, rVEGFD 100 ng/ml 3 days) | neuronal morphology (hippocampal neurons; neurons without nuclear calcium signaling blockade) | effect on reduction of dendrite length and complexity caused by shVEGFD (hippocampal neurons; pAAV-shVEGFD transfected neurons, rVEGFD 100 ng/ml 3 days or co-transfection) | restoration of spine density in CaMBP4 or CaMKIVK75E expressing neurons (hippocampal neurons; rVEGFD 100 ng/ml 3 days or VEGFD-HA expression) | rescue of reduction in dendrite length and complexity caused by CaMBP4 or CaMKIVK75E (hippocampal neurons; recombinant factors 100 ng/ml for 3 days, or VEGFD-HA expression) | rescue of decreased spike frequency (hippocampal cultures) | CREB phosphorylation (CREB)
1 | CaMKIVK75E: dominant negative mutant of CaMKIV (protein, UniProt P08414 1-469, looked up, variant K75E) Calcium/calmodulin-dependent …: MLKVTVPSCPSSPCSSVTASTENLVPDYWIDGSNRDPLGDFFEVESELGRGATSIVYRCKQKGTQKPYALKVLKETVDKKIVRTEIGVLLRLSHPNIIKLKEIFETPTEISLVLELVTGGELFDRIVEKGYYSERDARDAVKQILEAVAYLHENGIVHRDLKPENLLYATPAPDAPLKIADFGLSKIVEHQVLMKTVCGTPGYCAPEILRGCAYGPEVDMWSVGIITYILLCGFEPFYDERGDQFMFRRILNCEYYFISPWWDEVSLNAKDLVKKLIVLDPKKRLTTFQALQHPWVTGKAANFVHMDTAQKKLQEFNARRKLKAAVKAVVASSRLGSASSSHTSIQENHKASSDPPSTQDAKDSTDLLGKKMQEEDQEEDQVEAEASADEMRKLQSEEVEKDAGVKEEETSSMVPQDPEDELETDDPEMKRDSEEKLKSVEEEMDPMTEEEAPDAGLGVPQQDAIQPEY | significantly lower | – | – | – | – | – | – | – | – | –
2 | rVEGFD: recombinant mouse VEGFD (R&D Systems) (protein) FAATFYDTETLKVIDEEWQRTQCSPRETCVEVASELGKTTNTFFKPPCVNVFRCGGCCNEEGVMCMNTSTSYISKQLFEISVPLTSVPELVPVKIANHTGCKCLPTGPRHPYSIIRR | – | significant but moderate | very robust | did not affect dendrite length or complexity | no detectable effect on neuronal morphology | reversed | failed to restore normal spine density | rescued the reduction in dendrite length and complexity | partly rescued | significant but moderate

Source: patent US20120308554A1, “VEGF-D/VEGFR2/3-MEDIATED REGULATION OF DENDRITES” (UNIVERSITAT HEIDELBERG, priority 2011, published 2012)
